Source: EP2985295A1 (Calypso Biotech SA, dated 2016)
Changes are numbered by the printed parent chain.

B1: G03-VH-GL / G06-VL-GL1 (antibody, V domains shown)
VH: EVQLVQSGAEVKKPGASVKVSCKASGYTFTSYGISWVRQAPGQGLEWMGWISAYNGNTNYAQKLQGRVTMTTDTSTSTAYMELRSLRSDDTAVYYCARDYYGMDVWGQGTTVTVSS
VL: QAVLTQPPSASGTPGQRVTISCSGSTFNIGSNTVNWYQQLPGTAPKLLIYSDSHRPSGVPDRFSGSNSWNTASLAISGLQSEDEADYYCQAWDSSAVVFGGGTKVTVLG
B2: G03-VH-GL-V1-V9 / G06-VL-GL1 (antibody, V domains shown)
VH: B1 VH with W50Y, G56A
VL: B1 VL
B3: G03-VH-GL-V1 / G06-VL-GL1 (antibody, V domains shown)
VH: B1 VH with W50Y
VL: B1 VL

What follows are binders tested against mouse proMMP9 (mouse, UniProt P41245 20-730) (assay: cell-based or functional assay).
mouse proMMP9, sequence (P41245 20-730): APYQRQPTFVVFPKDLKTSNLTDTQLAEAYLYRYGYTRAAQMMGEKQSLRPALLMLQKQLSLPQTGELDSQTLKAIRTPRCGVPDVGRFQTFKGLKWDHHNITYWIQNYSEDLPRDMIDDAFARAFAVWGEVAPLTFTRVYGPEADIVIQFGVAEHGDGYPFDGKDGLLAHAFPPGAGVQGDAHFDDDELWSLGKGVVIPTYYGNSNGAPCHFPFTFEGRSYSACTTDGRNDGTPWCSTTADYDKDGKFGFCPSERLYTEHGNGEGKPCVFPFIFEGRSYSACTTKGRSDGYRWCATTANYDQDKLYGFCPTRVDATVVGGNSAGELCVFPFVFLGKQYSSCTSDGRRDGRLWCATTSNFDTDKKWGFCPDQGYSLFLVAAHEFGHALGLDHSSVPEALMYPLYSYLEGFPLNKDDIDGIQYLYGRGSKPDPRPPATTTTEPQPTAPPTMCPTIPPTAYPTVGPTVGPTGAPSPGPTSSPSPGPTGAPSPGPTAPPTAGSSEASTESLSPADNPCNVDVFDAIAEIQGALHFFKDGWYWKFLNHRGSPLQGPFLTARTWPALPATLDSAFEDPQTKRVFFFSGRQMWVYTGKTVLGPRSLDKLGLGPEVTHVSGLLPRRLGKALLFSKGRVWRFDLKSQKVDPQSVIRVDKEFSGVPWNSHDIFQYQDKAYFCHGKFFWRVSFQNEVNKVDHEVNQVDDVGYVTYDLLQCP

Efficiency, neutralization of processing of mouse MMP9 and/or its catalytic activity on gelatin (MMP3/MMP9 assay) [%]	IC50 (nM), neutralization of processing of mouse MMP9 and/or its catalytic activity on gelatin (MMP3/MMP9 assay) [nM]	Binder
30	151	B1
25	12.6	B2
25	16.4	B3

These binders were tested against Human MMP9 (i.e. activated MMP9) (human, UniProt P14780 107-707) (assay: cell-based or functional assay).
Human MMP9 (i.e. activated MMP9), sequence (P14780 107-707): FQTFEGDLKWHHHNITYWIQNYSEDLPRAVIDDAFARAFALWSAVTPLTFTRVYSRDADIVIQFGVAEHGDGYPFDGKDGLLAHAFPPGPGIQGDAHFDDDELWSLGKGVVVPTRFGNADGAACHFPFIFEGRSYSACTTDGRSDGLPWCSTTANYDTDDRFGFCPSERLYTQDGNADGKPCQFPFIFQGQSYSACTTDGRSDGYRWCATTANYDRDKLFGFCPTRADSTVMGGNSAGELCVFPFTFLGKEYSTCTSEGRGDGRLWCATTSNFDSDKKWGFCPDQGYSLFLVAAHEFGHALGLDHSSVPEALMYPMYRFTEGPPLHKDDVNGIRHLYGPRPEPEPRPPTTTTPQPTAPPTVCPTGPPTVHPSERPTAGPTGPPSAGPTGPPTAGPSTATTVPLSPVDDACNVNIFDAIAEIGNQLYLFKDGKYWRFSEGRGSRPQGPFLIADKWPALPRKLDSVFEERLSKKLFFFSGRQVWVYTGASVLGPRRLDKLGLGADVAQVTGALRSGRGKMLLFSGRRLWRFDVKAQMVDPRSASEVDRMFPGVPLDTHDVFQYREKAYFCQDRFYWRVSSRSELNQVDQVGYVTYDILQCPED

Efficiency, neutralization of catalytic activity on DQ-gelatin (MMP9 assay) [%]	IC50 (nM), neutralization of catalytic activity on DQ-gelatin (MMP9 assay) [nM]	Binder
50	0.13	B1
50	0.11	B2
50	0.06	B3

What follows are binders tested against Human proMMP9 (human, UniProt P14780 20-707) (assay: cell-based or functional assay).
Human proMMP9, sequence (P14780 20-707): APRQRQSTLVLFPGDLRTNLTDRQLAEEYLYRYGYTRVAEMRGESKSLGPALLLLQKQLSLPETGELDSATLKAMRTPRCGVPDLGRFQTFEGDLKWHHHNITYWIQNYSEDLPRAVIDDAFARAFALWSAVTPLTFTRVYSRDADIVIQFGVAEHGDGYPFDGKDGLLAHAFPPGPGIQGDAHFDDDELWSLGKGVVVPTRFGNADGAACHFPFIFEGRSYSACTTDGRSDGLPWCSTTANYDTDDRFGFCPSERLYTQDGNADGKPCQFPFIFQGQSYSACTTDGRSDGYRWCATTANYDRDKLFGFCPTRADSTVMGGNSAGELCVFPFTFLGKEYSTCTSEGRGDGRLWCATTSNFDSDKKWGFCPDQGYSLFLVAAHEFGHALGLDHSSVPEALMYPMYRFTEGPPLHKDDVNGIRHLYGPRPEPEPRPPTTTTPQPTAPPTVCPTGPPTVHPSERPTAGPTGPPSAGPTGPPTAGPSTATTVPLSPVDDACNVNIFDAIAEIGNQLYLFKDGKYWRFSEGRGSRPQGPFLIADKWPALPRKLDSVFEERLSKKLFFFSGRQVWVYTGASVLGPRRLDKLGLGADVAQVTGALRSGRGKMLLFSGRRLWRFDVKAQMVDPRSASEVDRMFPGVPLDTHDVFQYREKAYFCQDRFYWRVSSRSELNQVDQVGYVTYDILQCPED

Efficiency, neutralization of proMMP9 processing and/or downstream catalytic activity on DQ-gelatin (MMP3/MMP9 assay) [%]	IC50 (nM), neutralization of proMMP9 processing and/or downstream catalytic activity on DQ-gelatin (MMP3/MMP9 assay) [nM]	Binder
100	0.21	B1
100	0.21	B2
100	0.19	B3

Each binder was assayed against Cyno proMMP9 (Cynomologus monkey) (assay: cell-based or functional assay).

Efficiency, neutralization of processing of cyno MMP9 and/or its catalytic activity on gelatin (MMP3/MMP9 assay) [%]	IC50 (nM), neutralization of processing of cyno MMP9 and/or its catalytic activity on gelatin (MMP3/MMP9 assay) [nM]	Binder
100	0.04	B1
100	0.14	B2
100	0.03	B3

Each binder was assayed against rat proMMP9 (rat, UniProt P50282 20-708) (assay: cell-based or functional assay).
rat proMMP9, sequence (P50282 20-708): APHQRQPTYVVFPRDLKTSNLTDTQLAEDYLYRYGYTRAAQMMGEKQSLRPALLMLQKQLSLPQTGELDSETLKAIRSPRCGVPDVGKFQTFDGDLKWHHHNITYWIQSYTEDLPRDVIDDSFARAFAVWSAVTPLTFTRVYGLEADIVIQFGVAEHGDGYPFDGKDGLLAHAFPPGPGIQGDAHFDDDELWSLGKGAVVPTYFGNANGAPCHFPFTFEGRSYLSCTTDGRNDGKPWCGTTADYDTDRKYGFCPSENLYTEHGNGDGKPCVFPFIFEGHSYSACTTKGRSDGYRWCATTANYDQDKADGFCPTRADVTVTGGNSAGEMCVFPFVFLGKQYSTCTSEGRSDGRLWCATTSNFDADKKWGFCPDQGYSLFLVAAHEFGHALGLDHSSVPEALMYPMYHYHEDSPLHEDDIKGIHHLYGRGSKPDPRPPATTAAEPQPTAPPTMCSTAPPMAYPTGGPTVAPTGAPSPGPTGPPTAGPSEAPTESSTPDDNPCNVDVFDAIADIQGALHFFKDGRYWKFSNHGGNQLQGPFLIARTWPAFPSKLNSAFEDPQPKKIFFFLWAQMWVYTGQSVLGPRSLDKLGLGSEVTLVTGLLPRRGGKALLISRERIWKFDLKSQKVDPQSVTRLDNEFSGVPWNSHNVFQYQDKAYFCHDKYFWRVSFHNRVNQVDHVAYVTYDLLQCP

Efficiency, neutralization of processing of rat MMP9 and/or its catalytic activity on gelatin (MMP3/MMP9 assay) [%]	IC50 (nM), neutralization of processing of rat MMP9 and/or its catalytic activity on gelatin (MMP3/MMP9 assay) [nM]	Binder
100	64.7	B1
100	93.6	B2
100	19	B3
